The results in this text go back to paper PMC3853347.

The target of test [1] is Flag-TDRD3 CTD-deletion mutant. Put plainly: co-IP.
The target of test [2] is Flag-TDRD3 Tudor-deletion mutant (UniProt Q9H7E2). Nature of the test: co-IP.
Flag-TDRD3 Tudor-deletion mutant, sequence (Q9H7E2 whole entry, stated change not applied): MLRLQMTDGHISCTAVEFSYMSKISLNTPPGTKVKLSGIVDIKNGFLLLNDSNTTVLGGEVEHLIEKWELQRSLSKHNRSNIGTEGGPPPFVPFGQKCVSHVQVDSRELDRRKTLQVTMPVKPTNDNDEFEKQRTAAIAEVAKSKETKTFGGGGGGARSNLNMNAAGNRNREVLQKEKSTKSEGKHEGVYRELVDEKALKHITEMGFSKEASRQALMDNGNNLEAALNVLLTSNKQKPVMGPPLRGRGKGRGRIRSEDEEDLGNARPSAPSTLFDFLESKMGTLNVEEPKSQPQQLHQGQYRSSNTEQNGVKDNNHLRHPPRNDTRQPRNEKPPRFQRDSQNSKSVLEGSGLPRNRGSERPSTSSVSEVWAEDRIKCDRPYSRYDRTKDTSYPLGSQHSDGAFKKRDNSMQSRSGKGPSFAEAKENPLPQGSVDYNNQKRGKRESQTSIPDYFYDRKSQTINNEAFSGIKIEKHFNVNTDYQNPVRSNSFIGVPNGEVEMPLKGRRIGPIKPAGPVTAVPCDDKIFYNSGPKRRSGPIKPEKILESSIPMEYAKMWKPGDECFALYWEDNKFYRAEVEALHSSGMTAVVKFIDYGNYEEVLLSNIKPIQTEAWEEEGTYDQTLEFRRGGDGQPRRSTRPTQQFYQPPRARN

Flag-TDRD3 CTD-deletion mutant, sequence (Q9H7E2 whole entry, stated change not applied): as above
FXR1, endogenous human, sequence (P51114 whole entry): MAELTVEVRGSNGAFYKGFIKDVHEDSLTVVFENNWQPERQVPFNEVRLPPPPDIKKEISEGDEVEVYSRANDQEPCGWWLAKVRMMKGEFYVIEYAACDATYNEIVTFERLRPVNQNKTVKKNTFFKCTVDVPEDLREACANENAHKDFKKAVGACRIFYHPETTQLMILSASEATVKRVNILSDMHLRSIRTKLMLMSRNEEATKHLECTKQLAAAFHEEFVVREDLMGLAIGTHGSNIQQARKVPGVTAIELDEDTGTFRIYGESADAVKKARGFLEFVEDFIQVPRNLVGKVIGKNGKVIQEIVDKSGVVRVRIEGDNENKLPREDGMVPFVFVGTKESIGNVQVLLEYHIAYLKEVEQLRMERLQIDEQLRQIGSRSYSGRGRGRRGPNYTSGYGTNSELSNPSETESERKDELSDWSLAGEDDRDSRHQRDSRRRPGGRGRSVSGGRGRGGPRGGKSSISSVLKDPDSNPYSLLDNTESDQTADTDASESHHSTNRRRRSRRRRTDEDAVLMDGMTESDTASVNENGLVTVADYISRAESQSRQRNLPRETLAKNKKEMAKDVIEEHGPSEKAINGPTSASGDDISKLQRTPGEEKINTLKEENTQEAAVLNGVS
FXR2, endogenous human, sequence (P51116 whole entry): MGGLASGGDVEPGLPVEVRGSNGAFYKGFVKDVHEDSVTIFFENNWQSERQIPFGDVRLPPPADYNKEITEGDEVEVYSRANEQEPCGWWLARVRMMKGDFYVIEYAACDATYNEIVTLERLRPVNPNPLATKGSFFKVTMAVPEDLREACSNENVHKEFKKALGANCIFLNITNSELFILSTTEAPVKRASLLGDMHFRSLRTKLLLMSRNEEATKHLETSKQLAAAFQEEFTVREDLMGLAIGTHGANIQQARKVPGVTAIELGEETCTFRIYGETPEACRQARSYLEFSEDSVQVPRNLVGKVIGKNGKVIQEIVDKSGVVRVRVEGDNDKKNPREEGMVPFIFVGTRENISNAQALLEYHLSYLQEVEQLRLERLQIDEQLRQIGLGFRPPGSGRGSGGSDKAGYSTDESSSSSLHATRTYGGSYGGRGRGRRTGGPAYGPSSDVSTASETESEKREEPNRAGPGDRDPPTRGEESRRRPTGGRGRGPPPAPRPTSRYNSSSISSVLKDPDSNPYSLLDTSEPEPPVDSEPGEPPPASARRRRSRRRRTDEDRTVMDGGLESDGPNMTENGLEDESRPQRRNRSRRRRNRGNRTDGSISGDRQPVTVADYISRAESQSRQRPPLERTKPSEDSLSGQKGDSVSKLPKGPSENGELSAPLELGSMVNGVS

For the substance “FMRP, endogenous human (from UniProt Q06787 1-632) (natural protein)”, the reduction of the co-immunoprecipitated amount against wild-type TDRD3 in test [1] was found to be 80%; in test [2], 30%.
On the same counts, the results for “FXR1, endogenous human (from UniProt P51114 1-621) (natural protein)” are 80% and 30%.
On the same counts, the results for “FXR2, endogenous human (from UniProt P51116 1-673) (natural protein)” are 80% and 30%.
